The target in the test is T1, p97 N domain (21-196) (UniProt P55072 21-196).
T1 construct: p97 (VCP, valosin-containing protein), N-terminal domain, residues 21-196; The methods describe only the fusion proteins (pVFT3S vector, His6-thioredoxin cut off by TEV, E. coli Rosetta2 (DE3)); also called p97N^WT; N-terminal domain of p97; source: recombinant
Description: ITC; p97 N domain (2.0 mM) injected into the cell with Ufd1 SHP peptide (0.050 mM), 25°C, one-site binding model. The note with it: both partners purified. (ITC needs no label: the signal is the heat of the interaction.)

T1 sequence (P55072 21-196): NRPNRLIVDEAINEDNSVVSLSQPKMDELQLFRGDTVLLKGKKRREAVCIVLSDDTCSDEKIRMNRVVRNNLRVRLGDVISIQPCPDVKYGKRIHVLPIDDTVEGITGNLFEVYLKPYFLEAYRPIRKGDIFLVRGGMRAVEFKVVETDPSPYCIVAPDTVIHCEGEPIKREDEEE

B1: Ufd1 SHP box peptide (225-235) (peptide)
peptide: FRAFSGSGNRL
notes: also called Ufd1SHP^WT; SHP box of Ufd1; source: synthetic peptide (Peptron, Korea)
In the case of B1, the equilibrium dissociation constant (Kd) – broadly, the concentration at which binding is half-saturated – was determined as 221 ± 36 µM.

For the origin of these results see paper PMC5042407, “Structural Details of Ufd1 Binding to p97 and Their Functional Implications in ER-Associated Degradation” (PLoS ONE, 2016).
